Measurements: US20190112392A1 (Ablynx, published 2019)

T1: CEACAM5 on cells (UniProt P06731 35-685)
T1 sequence (looked up): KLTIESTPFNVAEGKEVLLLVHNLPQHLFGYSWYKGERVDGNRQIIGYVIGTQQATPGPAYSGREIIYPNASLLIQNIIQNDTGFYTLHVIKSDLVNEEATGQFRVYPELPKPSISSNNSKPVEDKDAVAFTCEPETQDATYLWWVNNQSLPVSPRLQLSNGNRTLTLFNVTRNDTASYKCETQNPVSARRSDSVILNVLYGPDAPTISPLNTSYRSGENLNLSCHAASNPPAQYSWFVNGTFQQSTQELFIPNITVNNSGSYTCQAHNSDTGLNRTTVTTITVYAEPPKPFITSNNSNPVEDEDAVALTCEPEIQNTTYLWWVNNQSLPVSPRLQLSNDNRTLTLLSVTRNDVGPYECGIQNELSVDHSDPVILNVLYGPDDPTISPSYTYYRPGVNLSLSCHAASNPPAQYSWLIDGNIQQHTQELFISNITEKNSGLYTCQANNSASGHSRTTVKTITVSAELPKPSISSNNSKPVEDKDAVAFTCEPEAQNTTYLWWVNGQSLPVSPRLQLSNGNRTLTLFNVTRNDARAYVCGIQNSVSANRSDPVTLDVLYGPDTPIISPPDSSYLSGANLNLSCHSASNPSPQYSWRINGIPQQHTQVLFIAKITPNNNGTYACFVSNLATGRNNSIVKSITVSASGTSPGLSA


How the values were obtained:
[1] = molecular target: T cell receptor alpha/beta on primary cynomolgus T cells (cynomolgus); test: cell-based or functional assay
[2] = molecular target: HER2 on cells (human, UniProt P04626 23-1255); test: cell-based or functional assay
[3] = molecular target: T1, CEACAM5 on cells; test: cell-based or functional assay
[4] = molecular target: T2, EGFR on cells (UniProt P00533 25-1210, limits assumed); test: flow cytometry on HER14 cells, MeanFI (PE)
T2 construct: whole, on cells; also called HER14 cells (NIH3T3 transfected with EGFR); EGFR on LS174T and LoVo cells

[5] = molecular target: T1, CEACAM5 on cells; test: flow cytometry, LS174T cells; design: Top: unit not given here
[6] = molecular target: T1, CEACAM5 on cells; test: flow cytometry, LoVo cells; design: Top: unit not given here
[7] = molecular target: T1, CEACAM5 on cells; test: cell-based or functional assay; remark: listed apart in the source

Binder | IC50, xCELLigence cynomolgus T cell mediated SKBR3 killing assay [1] [nM] | IC50 (column head prints EC50), xCELLigence based cytotoxicity (readout 18 h), MCF-7, human T cells, E/T 15:1 [2] [nM] | IC50, xCELLigence based cytotoxicity (readout 18 h), SKBR3, human T cells, E/T 15:1 [2] [nM] | IC50, xCELLigence human T cell mediated killing of LS174T cells, E:T 15, 30-40 h [3] [nM] | IC50, xCELLigence human T cell mediated killing of LoVo cells, E:T 15, 30-40 h [3] [nM] | binding result [4] | EC50 [5] [nM] | Top [5] | EC50 [6] [nM] | Top [6] | IC50, xCELLigence human T cell mediated killing of LS174T cells, E:T 15, 50-60 h [7] [nM] | IC50, xCELLigence human T cell mediated killing of LoVo cells, E:T 15, 50-60 h [7] [nM]
T017000102 (bispecific antibody) EVQLVESGGGLVQAGGSLRLSCAASGITFSINTMGWYRQAPGKQRELVALISSIGDTYYADSVKGRFTISRDNAKNTVYLQMNSLKPEDTAVYYCKRFRTAAQGTDYWGQGTLVTVSSGGGGSGGGGSGGGGSGGGGSGGGGSGGGGSGGGGSEVQLVESGGGLVQPGGSLRLSCVASGDVHKINFLGWYRQAPGKEREKVAHISIGDQTDYADSAKGRFTISRDESKNMVYLQMNSLKPEDTAVYFCRAFSRIYPYDYWGQGTLVTVSSGAADYKDHDGDYKDHDIDYKDDDDKGAAHHHHHH | 0.046 | 0.12 | 0.014 |  |  |  |  |  |  |  |  | 
T017000109 (other, Irrelevant (anti-egg lysozyme) x CEACAM5 x TCR Nanobody construct; entry includes the FLAG3-HIS6 tag; also called cAbLys3(D1E,Q5V,A6E,Q108L)-35GS-NbCEA5-35GS-T0170056G05-FLAG3-HIS6) EVQLVESGGGSVQAGGSLRLSCAASGYTIGPYCMGWFRQAPGKEREGVAAINMGGGITYYADSVKGRFTISQDNAKNTVYLLMNSLEPEDTAIYYCAADSTIYASYYECGHGLSTGGYGYDSWGQGTLVTVSSGGGGSGGGGSGGGGSGGGGSGGGGSGGGGSGGGGSEVQLVESGGGSVQAGGSLRLSCAASGDTYGSYWMGWFRQAPGKEREGVAAINRGGGYTVYADSVKGRFTISRDTAKNTVYLQMNSLRPDDTADYYCAASGVLGGLHEDWFNYWGQGTLVTVSSGGGGSGGGGSGGGGSGGGGSGGGGSGGGGSGGGGSEVQLVESGGGLVQPGGSLRLSCVASGDVHKINFLGWYRQAPGKEREKVAHISIGDQTDYADSAKGRFTISRDESKNMVYLQMNSLKPEDTAVYFCRAFSRIYPYDYWGQGTLVTVSSGAADYKDHDGDYKDHDIDYKDDDDKGAAHHHHHH |  |  |  | 100 | 9.3 | no binding (tested: 5e-7 M) | 25 | 51000 | 36 | 18500 | 36 | 2
